± gives the standard deviation of the averaged measurements.
The sequences below were run on ATP (assay: switch fluorescence ratio, 500 uM ATP over buffer (Cy3 cluster intensity, sum of 5 cycles each) (fold (ratio)); higher = stronger signal-on switching upon ATP binding; sequences stand for … in TCGTCGGCAGCGTCAGATGTGTATAAGAGACAGTTTTTTTTTTTTTTTTTTTTTTTTT…TC). Conditions: aptamer strand: ATP DNA aptamer (quencher-CACCTGGGGGAGTATTGCGGAGGAAGG + anchor), 100 nM annealed; ATP concentration: 500 uM.
Procedure, shortened: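 Five buffer/ATP imaging cycles were run on Cy3-labelled switching-strand clusters on a modified Illumina MiSeq flow-cell, with NaOH stripping and re-annealing between cycles. In each cycle, clusters annealed to 100 nM quencher-labelled ATP aptamer were imaged in selection buffer, then after 15 min with 500 uM ATP at 22 °C. Per cluster, the fluorescence ratio is summed target-cycle over summed buffer-cycle Cy3 intensity, averaged per switch-domain sequence. Only clusters within 100-1000 RFU were kept.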
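Note: ATP exposure 15 min at 22 °C before imaging.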

Sequence	switch fluorescence ratio
TGGCGAATTA	0.978 ± 0.026
TCTGTATACA	0.989 ± 0.037
GGGGAATGGC	1.05 ± 0.1
GTTATCTTAG	1.01 ± 0.025
TCGGGGGGA	1.03 ± 0.034
CTCAATACTT	1.786 ± 0.0034
CGTTAGATTG	0.998 ± 0.051
CCGGGCCTGC	1.11 ± 0.014
CTCGTAATCT	1.571 ± 0.007
GCTTTATGAA	1.02 ± 0.054
ATACTTATAT	1.038 ± 0.0097
GCATCTACGG	1.02 ± 0.019
CAATACAGGG	1.04 ± 0.042
ATGATGTGGG	1.011 ± 0.0087
AAGTACTTTT	1.2 ± 0.055
AAAAAGCTCG	0.985 ± 0.064
ATTGTCTCTA	0.999 ± 0.032
AGGTTAAAAT	1.03 ± 0.024
TTTCAGGTTA	1.06 ± 0.012
CCTGGGGGCA	1.04 ± 0.0089
CATCGGTGCG	1.08 ± 0.19
GGGTGATCGA	0.98 ± 0.054
TTTAGTAAAC	1.08 ± 0.11

Sequence	switch fluorescence ratio
GGGAGCTGAA	1.04 ± 0.04
TTGTTAATTG	1.01 ± 0.041
AGGTGTGATA	1.1 ± 0.051
ACCCCCCTGT	1.37 ± 0.41
CAGAGCGGGG	0.998 ± 0.023
TTACTTCTGG	0.9796 ± 0.0017
TTGTCACAGG	1.09 ± 0.056
GATCCAGAAG	1.017 ± 0.0036
CAAGTTAAAG	1.01 ± 0.015
TCCGGGGGTG	1.09 ± 0.13
AGTTCCGTTG	1.028 ± 0.0097
GAGACCTTTT	1.13 ± 0.17
TTAATACTTG	1.03 ± 0.018
GCTGGCACAC	1.04 ± 0.021
CGTTCTTCGC	1.07 ± 0.094
ATCATTCGGT	0.9964 ± 0.0074
CATTTGGGCG	1.03 ± 0.015
AACTTCAGCT	0.995 ± 0.03
TTTAAGAAGG	1 ± 0.015
AGGTCAGGTT	1.0131 ± 0.0003
GGGTCGTCAT	1.01 ± 0.015
CAATTGTCGT	0.991 ± 0.033
AAAATCTGTT	1.02 ± 0.061

Sequence	switch fluorescence ratio
AACGAAAATG	0.997 ± 0.053
TTTCTAACGT	1.001 ± 0.0026
CCTATAAAGG	1.03 ± 0.04
CAGATGGGAG	1.02 ± 0.014
GTTCGGGGTG	0.978 ± 0.003
GCGTATTGCT	0.993 ± 0.016
ACCAGGAGAT	1.046 ± 0.0011
GTTTCGGGCT	1.01 ± 0.012
TTTTTATGCC	0.963 ± 0.05
CGGCAAAGTA	0.972 ± 0.065
GTATGACAGT	1.02 ± 0.032
CGGATTTATC	1.01 ± 0.033
GGCTATCTGT	1 ± 0.047
ACGAACGATC	1.35 ± 0.022
GAATCGATTT	1.02 ± 0.027
AATGGGGCGG	1.03 ± 0.034
GCTTTCCAGA	0.9949 ± 0.0059
AAGTGGCTGT	0.941 ± 0.027
TTTAACGGGG	0.987 ± 0.034
GTGTATCACG	1.015 ± 0.0048
GGTCGGGTTG	0.979 ± 0.011
ATAGGGATGG	0.9829 ± 0.0035
GCTATTGGAT	1.01 ± 0.02

Sequence	switch fluorescence ratio
TTTAATAGTG	0.971 ± 0.014
ATACGCTTTT	1.14 ± 0.14
TAGCCGTCTA	1.058 ± 0.0034
GGGGTGCGGG	0.99 ± 0.032
TTCGTCAGTT	0.9992 ± 0.0073
TCCTAGGCGT	1.06 ± 0.12
CTCAAGGGGC	1.14 ± 0.11
GGCGTTTATC	0.9746 ± 0.0018
CGCCTCGTAC	1.9 ± 0.062
GGGGCATTTA	0.9643 ± 0.0047
TTTGGTTAGT	0.991 ± 0.023
GGGAGCCGGT	1.02 ± 0.015
TCTATCCCAG	1.13 ± 0.092
TCCCCGGGCA	0.995 ± 0.04
GGAGTGGGAT	1.03 ± 0.034
CGTGAATTTT	1 ± 0.037
TATTGCTATT	0.972 ± 0.017
TATGGGTTTG	0.994 ± 0.04
ATCGCGGTGC	1.64 ± 0.33
TTATGAGATA	0.996 ± 0.035
CGTGTTGGAT	0.997 ± 0.062
CGGTGAGCGA	1.03 ± 0.044
TGGGGTGCGA	1.01 ± 0.042

Sequence	switch fluorescence ratio
TTGATGAACA	1 ± 0.024
TATTTCGAAC	1.02 ± 0.015
AGGTAGATAG	0.948 ± 0.0068
TTTATAGTGC	1.01 ± 0.027
TTTAGTTGAA	0.988 ± 0.023
ATGGGAAGTC	0.992 ± 0.024
AGGGGTACAG	0.995 ± 0.04
TCTTGAGCAT	1.34 ± 0.13
TCGTAGGGGA	1.03 ± 0.025
GGGGGCGGAA	1 ± 0.027
GATGAATTGG	0.975 ± 0.012
TTGTATTGGT	1.04 ± 0.11
CGGGTTAGTA	1.02 ± 0.042
TAGTTGTCCC	1.02 ± 0.045
TTAATTTACT	1.08 ± 0.043
TTGAATTAGA	0.965 ± 0.025
TCATTAGCTT	0.991 ± 0.012
TATCAGACAG	1.011 ± 0.0095
GGTTAAGTGT	1.01 ± 0.021
TAAGTCCTGT	0.998 ± 0.033
TCAAATTTTC	1.02 ± 0.026
CGGGTCGCTT	0.9738 ± 0.004
AAGGGGCGT	0.9961 ± 0.0036

Sequence	switch fluorescence ratio
TAACCAGTTA	1.04 ± 0.019
ACCCAGAGCG	1.14 ± 0.023
CATCGGATTT	0.972 ± 0.01
ATATTCGCAC	1.19 ± 0.063
TGGGGTCAGG	1.016 ± 0.0086
AAAGCGGATT	1 ± 0.018
CTGGTATAGA	1 ± 0.046
TGGTGGGGGG	0.997 ± 0.037
TTGATTGAGG	1 ± 0.017
AGGCGATCTG	1.01 ± 0.041
GGGGACGACC	1.03 ± 0.017
AATGGTTGGT	0.994 ± 0.016
TAAAAGAACT	1.03 ± 0.038
GTTAAGGGCC	0.99 ± 0.011
GATGGGACAG	1.01 ± 0.0019
GGTGCATAGC	0.9714 ± 0.0074
GCTGGTTGGC	0.964 ± 0.016
CGTGAAAAGA	0.986 ± 0.033
TAGTAACTAC	1.05 ± 0.011
AGTTGGGGTA	1 ± 0.013
GGGGATTACG	0.984 ± 0.026
AGCGGGTTTC	1.02 ± 0.015
GGCATCGGTT	0.977 ± 0.027

Sequence	switch fluorescence ratio
GCTGAGAATG	0.999 ± 0.021
CGGTTATTGA	1.02 ± 0.022
CTATCCGGAC	1.25 ± 0.014
AGAGGGGGGA	1.02 ± 0.041
ACTGTTTTTC	1 ± 0.013
GGTTTGGCTG	0.993 ± 0.038
ATAAGGTTTT	0.985 ± 0.014
ATTGAAGATG	0.971 ± 0.025
ACTTAAAAGG	1.0122 ± 0.00061
TCCCAACGGG	1.011 ± 0.0036
TTTTCAGTAG	0.9996 ± 0.0039
TAAACAGCTG	0.955 ± 0.043
CCTTTATCGG	0.997 ± 0.012
AGCAGGGGGA	1.01 ± 0.034
ATTGAGTGGC	0.928 ± 0.026
TTCGAGTCTT	0.9742 ± 0.0083
AGAAAAGGGA	0.995 ± 0.017
TGACGGAGAA	1.01 ± 0.015
TTTTCGTTTT	1.04 ± 0.082

From the supplement of paper PMC10126150
